Experimental data: publication PMC4406679

Target: T1, His-OpaR (Vibrio parahaemolyticus BB22OP) (UniProt Q79YV4)
T1 sequence: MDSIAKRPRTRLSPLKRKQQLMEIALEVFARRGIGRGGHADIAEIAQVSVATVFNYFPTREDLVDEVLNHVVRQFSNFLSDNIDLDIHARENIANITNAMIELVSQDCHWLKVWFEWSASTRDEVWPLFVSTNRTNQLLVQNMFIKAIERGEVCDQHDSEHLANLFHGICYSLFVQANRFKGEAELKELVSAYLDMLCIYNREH
Assay: EMSA
Details: 10 mM Tris-HCl pH 7.5, 50 mM NaCl, 1 mM MgCl2, 0.5 mM EDTA, 0.5 mM DTT, 0.05 mg/ml poly d(I-C), 150 ug/ml BSA; temperature not stated

For “CTGTAAGTGAAGAATAATACCGAATGAAGTTTAAAGGCGCTCGAATGAGCGCCTTTTTTATTTGTCATGGAAAACGATAAGAACGAATATGCCGAACATTGAGATCATTCGCTTTAACCACTT (double strand) [araC family (VPBB_A0554) promoter]”, the binding was “no binding”.
